Patent publication US20150283263A1 (ADC THERAPEUTICS S A, published 2015)

Columns and labels:
CD25 [1] = biological target: T1, CD25 (human, UniProt P01589 22-272); test: flow cytometry on SU-DHL-1 cells (surface CD25), average of four experiments
T1 construct: whole, on cells; Endogenous CD25 on cell lines; also called surface CD25 on Karpas299 and SU-DHL-1 cells
T1 sequence (looked up): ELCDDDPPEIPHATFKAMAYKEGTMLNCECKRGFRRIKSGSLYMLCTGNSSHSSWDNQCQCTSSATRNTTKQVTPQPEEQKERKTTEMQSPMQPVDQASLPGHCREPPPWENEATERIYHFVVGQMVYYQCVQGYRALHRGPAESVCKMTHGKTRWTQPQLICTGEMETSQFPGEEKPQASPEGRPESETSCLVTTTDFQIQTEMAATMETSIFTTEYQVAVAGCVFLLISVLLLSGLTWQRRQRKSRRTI
Method: (§1) Karpas299 and SU-DHL-1 anaplastic large cell lymphoma (ALCL)-derived cell lines have been previously reported to express CD25 (2,3). To confirm their expression profile, CD25 surface expression was analyzed by flow cytometry.
(§2) Surface CD25 expression on Karpas and SU-DHL-1 was determined by flow cytometry. Graphs represent the average of three (Karpas299) or four independent experiments (SU-DHL-1). EC₅₀ values are reported in ng/ml.

CD25 [2] = biological target: T1, CD25; test: flow cytometry on Karpas299 cells (surface CD25), average of three experiments
Method: as §1, §2

B1: HuMax-TAC (antibody, IgG1, V domains shown)
VH: QVQLVQSGAEVKKPGSSVKVSCKASGGTFSRYIINWVRQAPGQGLEWMGRIIPILGVENYAQKFQGRVTITADKSTSTAYMELSSLRSEDTAVYYCARKDWFDYWGQGTLVTVSS
VL: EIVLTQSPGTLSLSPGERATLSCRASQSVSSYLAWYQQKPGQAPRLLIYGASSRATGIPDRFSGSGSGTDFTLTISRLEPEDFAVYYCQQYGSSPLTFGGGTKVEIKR
notes: also called AB12; Antibody AB12
EC50 (CD25 [1]): 0.0341 µg/mL | EC50 (CD25 [2]): 0.0202 µg/mL
